The target of experiment [1] is T1, heterodimer of human CD3 delta and CD3 epsilon ectodomains fused to a human Fc domain with knob-into-hole … (human).
T1 construct: Each entry is the whole fusion chain (ectodomain, stalk, Fc, Avi-tag); also called recombinant CD3; recombinant human CD3
The experiment in a line: SPR, relative active concentration after stress.

Experiment [2] concerns the target T2, EGFRvIII-ECD avi his (human).
T2 construct: Extracellular domain of human EGFRvIII fused to an Avi-tag and a His-tag at the C-terminus; the entry is the whole construct; also called recombinant EGFRvIII; EGFRvIII antigen
The experiment in a line: SPR, TCB captured with anti-Fc antibody, EGFRvIII-ECD avi his as analyte, 1:1 fit; CD3opt.

Experiment [3] has as its target T1, heterodimer of human CD3 delta and CD3 …. The experiment in a line: SPR, TCB captured with anti-PGLALA antibody, CD3 antigen as analyte, 1:1 Langmuir; CD3opt; human CD3.
Experiment [4] has as its target T3, heterodimer of cynomolgus CD3 delta and CD3 epsilon ectodomains fused to a human Fc domain with … (cynomolgus).
T3 construct: Each entry is the whole fusion chain; also called Cynomolgus CD3 epsilon stalk-Fc(knob)-Avi / Cynomolgus CD3 delta stalk-Fc(hole)-Avi
The experiment in a line: SPR, TCB captured with anti-PGLALA antibody, CD3 antigen as analyte, 1:1 Langmuir; CD3opt; cynomolgus CD3.

Experiment [5] concerns the target T4, EGFRvIII expressed on the cell surface (CHO-EGFRvIII, DK-MG, U87MG-EGFRvIII cells) (human, UniProt P00533 298-1210).
T4 construct: The cell line of each result is named under assay; Species is stated for the U87 transfectant (human EGFRvIII protein) and the entry; also called EGFRvIII positive cells
The experiment in a line: flow cytometry on U87MG-EGFRvIII cells, fluorescently labelled anti-human Fc secondary antibody.

Experiment [6] has as its target T2, EGFRvIII-ECD avi his. The experiment in a line: SPR, TCB captured with anti-Fc antibody, EGFRvIII-ECD avi his as analyte, 1:1 fit; CD3orig.
Experiment [7] deals with T1, heterodimer of human CD3 delta and CD3 …. The experiment in a line: SPR, TCB captured with anti-PGLALA antibody, CD3 antigen as analyte, 1:1 Langmuir; CD3orig; human CD3.
Experiment [8] deals with T4, EGFRvIII expressed on the cell surface …. The experiment in a line: flow cytometry on CHO-EGFRvIII cells, IgG.
Experiment [9] concerns the target T5, wild-type EGFR on MKN-45 cells (human, UniProt P00533 25-1210).
T5 construct: MKN-45 is the wild-type EGFR line used to exclude crossreactivity; also called EGFRwt
The experiment in a line: flow cytometry on MKN-45 cells (wild-type EGFR).

The target of experiment [10] is T4, EGFRvIII expressed on the cell surface …. The experiment in a line: flow cytometry on U87MG-EGFRvIII cells, IgG PGLALA.
Experiment [11] concerns the target T2, EGFRvIII-ECD avi his. The experiment in a line: SPR, ECD antigen captured with anti-His, single injection of antibody at 500 nM.
The target of experiment [12] is EGFRwt ECD antigen (His-tagged, captured with anti-His) (human, UniProt P00533 25-645). The description is as above.
Experiment [13] deals with T2, EGFRvIII-ECD avi his. The experiment in a line: SPR, PGLALA IgG captured with anti-PGLALA antibody, EGFRvIII-ECD avi his as analyte, 1:1 Langmuir, 25° C.
Experiment [14] addresses T4, EGFRvIII expressed on the cell surface …. The experiment in a line: flow cytometry on CHO-EGFRvIII cells, TCB.

B1: EGFRvIII TCB CD3opt (EGFRvIII binder P063.056) (bispecific antibody, human IgG1, kappa, L234A L235A)
heavy 1: not shown
heavy 2: EVQLVQSGAEVKKPGESLKISCKGSGYSFDSYWIAWVRQMPGKGLEWMGVIHPYDSDTRYSPSFQGQVTISADKSISTAYLQWSSLKASDTAMYYCARVSRSSYAFDYWGQGTLVTVSSASTKGPSVFPLAPSSKSTSGGTAALGCLVEDYFPEPVTVSWNSGALTSGVHTFPAVLQSSGLYSLSSVVTVPSSSLGTQTYICNVNHKPSNTKVDEKVEPKSCDKTHTCPPCPAPEAAGGPSVFLFPPKPKDTLMISRTPEVTCVVVDVSHEDPEVKFNWYVDGVEVHNAKTKPREEQYNSTYRVVSVLTVLHQDWLNGKEYKCKVSNKALGAPIEKTISKAKGQPREPQVCTLPPSRDELTKNQVSLSCAVKGFYPSDIAVEWESNGQPENNYKTTPPVLDSDGSFFLVSKLTVDKSRWQQGNVFSCSVMHEALHNHYTQKSLSLSP
light 1: not shown
light 2: EVQLLESGGGLVQPGGSLRLSCAASGFQFSSYAMNWVRQAPGKGLEWVSRIRSKYNNYATYYADSVKGRFTISRDDSKNTLYLQMNSLRAEDTAVYYCVRHTTFPSSYVSYYGYWGQGTLVTVSSASVAAPSVFIFPPSDEQLKSGTASVVCLLNNFYPREAKVQWKVDNALQSGNSQESVTEQDSKDSTYSLSSTLTLSKADYEKHKVYACEVTHQGLSSPVTKSFNRGEC
notes: 2+1 IgG CrossFab, inverted, with charge modifications; also called EGFRvIII TCB P063.056 with CD3opt; 2+1 format
As for B1, in experiment [1], the “binding activity to CD3 after 2 weeks at pH 7.4, 37° C., relative to 2 weeks at pH 6, -80° C.” value is over 90%. Moreover, the Kd with EGFRvIII-ECD avi his [2] is 6 nM; in [3], 30 nM; in [4], 20 nM. Also, the binding result in [5] is listed as “binds”.

B2: EGFRvIII TCB CD3orig (EGFRvIII binder P063.056) (bispecific antibody, human IgG1, kappa, L234A L235A)
heavy 1: not shown
heavy 2: EVQLVQSGAEVKKPGESLKISCKGSGYSFDSYWIAWVRQMPGKGLEWMGVIHPYDSDTRYSPSFQGQVTISADKSISTAYLQWSSLKASDTAMYYCARVSRSSYAFDYWGQGTLVTVSSASTKGPSVFPLAPSSKSTSGGTAALGCLVEDYFPEPVTVSWNSGALTSGVHTFPAVLQSSGLYSLSSVVTVPSSSLGTQTYICNVNHKPSNTKVDEKVEPKSCDKTHTCPPCPAPEAAGGPSVFLFPPKPKDTLMISRTPEVTCVVVDVSHEDPEVKFNWYVDGVEVHNAKTKPREEQYNSTYRVVSVLTVLHQDWLNGKEYKCKVSNKALGAPIEKTISKAKGQPREPQVCTLPPSRDELTKNQVSLSCAVKGFYPSDIAVEWESNGQPENNYKTTPPVLDSDGSFFLVSKLTVDKSRWQQGNVFSCSVMHEALHNHYTQKSLSLSP
light 1: not shown
light 2: EVQLLESGGGLVQPGGSLRLSCAASGFTFSTYAMNWVRQAPGKGLEWVSRIRSKYNNYATYYADSVKGRFTISRDDSKNTLYLQMNSLRAEDTAVYYCVRHGNFGNSYVSWFAYWGQGTLVTVSSASVAAPSVFIFPPSDEQLKSGTASVVCLLNNFYPREAKVQWKVDNALQSGNSQESVTEQDSKDSTYSLSSTLTLSKADYEKHKVYACEVTHQGLSSPVTKSFNRGEC
notes: 2+1 IgG CrossFab, inverted, with charge modifications; also called EGFRvIII TCB P063.056 with CD3orig
For B2, the Kd amounted to 6 nM with EGFRvIII-ECD avi his [6] and 40 nM in experiment [7]. The concentration for a half-maximal effect (EC50 (read off the curve)) in [5] is about 9 nM.

B3: EGFRvIII antibody P056.021 IgG1 PGLALA (antibody, V domains shown)
VH: EVQLVQSGAEVKKPGESLKISCKGSGYSFDSYWIAWVRQMPGKGLEWMGVIHPYDSDTRYSPSFQGQVTISADKSISTAYLQWSSLKASDTAMYYCARVSRSSYAFDYWGQGTLVTVSS
VL: not shown
notes: Human IgG1 with P329G L234A L235A; also called P056.021 (parental)
Consider B3, for which the EC50 in experiment [8] worked out at 16.5 nM. For the same molecule, the binding result in experiment [9] was “no binding (tested: about 140 nM)”. In addition, the “EC50 (read off the curve)” value in experiment [10] is about 4 nM. The response units in the experiment with EGFRvIII-ECD avi his [11] was over 50 RU; in experiment [12], under 5 RU. The equilibrium dissociation constant (Kd) with EGFRvIII-ECD avi his [13] was 35 nM.

B4: EGFRvIII TCB P056.021 (CD3orig) (bispecific antibody, V domains shown)
VH 1: EVQLVQSGAEVKKPGESLKISCKGSGYSFDSYWIAWVRQMPGKGLEWMGVIHPYDSDTRYSPSFQGQVTISADKSISTAYLQWSSLKASDTAMYYCARVSRSSYAFDYWGQGTLVTVSS
VL 1: not shown
VH 2: not shown
VL 2: QAVVTQEPSLTVSPGGTVTLTCGSSTGAVTTSNYANWVQEKPGQAFRGLIGGTNKRAPGTPARFSGSLLGGKAALTLSGAQPEDEAEYYCALWYSNLWVFGGGTKLTVL
notes: also called parental EGFRvIII TCB P056.021; P056.021 EGFRvIII TCB with CD3orig
In turn, B4 yielded a half-maximal effective concentration (EC50) in experiment [14] of 13 nM. Further, the binding result in experiment [9] was “no binding (tested: about 140 nM)”.
